Experimental data published in patent US20240124560A1.

Experiments:
Experiment in all cases: cell-based or functional assay
[1] = biological target: HIV-1 Env of NAC_JRFL (HIV-1)
[2] = biological target: HIV-1 Env of pseudovirus NIH-078_BJOX015000.11.5 (HIV-1)
[3] = biological target: HIV-1 Env of pseudovirus NIH-064_0260.v5.c1 (HIV-1)
[4] = biological target: HIV-1 Env of pseudovirus NIH-027_CAP45.G3 (HIV-1)
[5] = biological target: HIV-1 Env of pseudovirus NAC_93IN905 (HIV-1)
[6] = biological target: HIV-1 Env of pseudovirus NIH-084_X1254 c3 (clade G) (HIV-1)
[7] = biological target: HIV-1 Env of pseudovirus NIH-103_0815.v3.c3 (HIV-1)
[8] = biological target: HIV-1 Env of NIH-001_6535.3 (HIV-1)
[9] = biological target: HIV-1 Env of pseudovirus NIH-060_Q769ENVd22 (HIV-1)
[10] = biological target: HIV-1 Env of pseudovirus NIH-068_620345.c01 (HIV-1)
[11] = biological target: HIV-1 Env of pseudovirus NIH-020_ZM197M.PB7 (HIV-1)
[12] = biological target: HIV-1 Env of pseudovirus NIH-030_HIV-0013095.2.11 (HIV-1)
[13] = biological target: HIV-1 Env of pseudovirus NIH-034_Ce0393 C3 (HIV-1)
[14] = biological target: HIV-1 Env of NIH-095_6480.v4.c25 (HIV-1)
[15] = biological target: HIV-1 Env of pseudovirus NIH-085_X2088 c9 (clade G) (HIV-1)
[16] = biological target: HIV-1 Env of pseudovirus NIH-066_191084 B7.19 (HIV-1)
[17] = biological target: HIV-1 Env of pseudovirus NIH-119_T211.9 (HIV-1)
[18] = biological target: HIV-1 Env of pseudovirus NIH-026_ZM135M.PL10a (HIV-1)
[19] = biological target: HIV-1 Env of NIH-072_R3265.c06 (HIV-1)
[20] = biological target: HIV-1 Env of pseudovirus NAC_ADA (HIV-1)
[21] = biological target: HIV-1 Env of pseudovirus NIH-117_T278.5 (HIV-1)
[22] = biological target: HIV-1 Env of pseudovirus NIH-102_6545.v4.c1 (HIV-1)
[23] = biological target: HIV-1 Env of NAC_MN (HIV-1) (UniProt P05877)
[24] = biological target: HIV-1 Env of NIH-071_R1166.c01 (HIV-1)
[25] = biological target: HIV-1 Env of pseudovirus NIH-094_3817.v2.c59 (HIV-1)
[26] = biological target: HIV-1 Env of NIH-054_CNE53 (HIV-1)
[27] = biological target: HIV-1 Env of pseudovirus NIH-023_ZM249M.PL1 (HIV-1)
[28] = biological target: HIV-1 Env of pseudovirus NIH-012_1012.11.TC21.3257 (HIV-1)
[29] = biological target: HIV-1 Env of pseudovirus NIH-091_231965.c01 (clade D) (HIV-1)
[30] = biological target: HIV-1 Env of NIH-060_Q769ENVd22 (HIV-1)
[31] = biological target: HIV-1 Env of NIH-047_Ce704809221 1B3 (HIV-1)
[32] = biological target: HIV-1 Env of pseudovirus NIH-096_6952.v1.c20 (HIV-1)
[33] = biological target: HIV-1 Env of NAC_IAVIC22 (HIV-1)
[34] = biological target: HIV-1 Env of pseudovirus NAC_BG505 (HIV-1)
[35] = biological target: HIV-1 Env of pseudovirus NIH-036_Ce2010 F5 (HIV-1)
[36] = biological target: HIV-1 Env of NAC_HxB2 (HIV-1) (UniProt P04578)
[37] = biological target: HIV-1 Env of pseudovirus NIH-048_CNE19 (HIV-1)
[38] = biological target: HIV-1 Env of pseudovirus NIH-049_CNE20 (HIV-1)
[39] = biological target: HIV-1 Env of pseudovirus NIH-038_Ce1172 H1 (HIV-1)
[40] = biological target: HIV-1 Env of pseudovirus NIH-011_1056.10.TA11.1826 (HIV-1)
[41] = biological target: HIV-1 Env of isolate NIH-087_P1981 C5 3 (HIV-1)
[42] = biological target: HIV-1 Env of NIH-114_T257.31 (HIV-1)
[43] = biological target: HIV-1 Env of NAC_92TH021 (HIV-1)
[44] = biological target: HIV-1 Env of NIH-064_0260.v5.c1 (HIV-1)
[45] = biological target: HIV-1 Env of NIH-103_0815.v3.c3 (HIV-1)
[46] = biological target: HIV-1 Env of NIH-031_HIV-16055.2.3 (HIV-1)

Chain of HIV-1 Env of NAC_MN (HIV-1) (P05877 32-856 limits assumed): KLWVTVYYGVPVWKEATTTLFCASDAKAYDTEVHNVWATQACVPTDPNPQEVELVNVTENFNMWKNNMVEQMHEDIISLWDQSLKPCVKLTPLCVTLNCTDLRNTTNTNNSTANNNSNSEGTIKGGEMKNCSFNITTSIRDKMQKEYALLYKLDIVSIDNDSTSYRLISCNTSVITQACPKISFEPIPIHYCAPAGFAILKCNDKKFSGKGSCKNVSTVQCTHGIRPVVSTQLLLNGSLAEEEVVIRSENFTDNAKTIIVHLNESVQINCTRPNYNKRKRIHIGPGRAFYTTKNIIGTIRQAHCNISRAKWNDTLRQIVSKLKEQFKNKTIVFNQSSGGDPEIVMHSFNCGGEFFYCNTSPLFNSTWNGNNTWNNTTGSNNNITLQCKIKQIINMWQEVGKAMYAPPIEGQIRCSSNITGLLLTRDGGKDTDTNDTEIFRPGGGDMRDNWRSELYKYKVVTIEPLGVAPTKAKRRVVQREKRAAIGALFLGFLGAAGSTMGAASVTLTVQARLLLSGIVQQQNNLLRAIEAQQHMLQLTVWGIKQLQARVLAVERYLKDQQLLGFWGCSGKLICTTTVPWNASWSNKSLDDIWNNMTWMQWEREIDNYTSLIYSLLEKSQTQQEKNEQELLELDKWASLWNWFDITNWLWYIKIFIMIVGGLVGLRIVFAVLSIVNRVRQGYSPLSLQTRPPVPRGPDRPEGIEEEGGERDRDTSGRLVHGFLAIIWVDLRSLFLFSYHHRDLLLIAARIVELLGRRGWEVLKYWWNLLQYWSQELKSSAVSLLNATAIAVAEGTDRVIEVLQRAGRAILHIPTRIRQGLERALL

Substance PGZL1 (antibody) has an IC80 neutralization [1] greater than 50 µg/mL, a neutralization IC50 [2] of 2.59 µg/mL and a neutralization IC50 [3] greater than 50 µg/mL. The neutralization IC50 [4] was 18.3 µg/mL, the neutralization IC50 [5] was 0.404 µg/mL and the IC50 (µg/ml), TZM-bl cell neutralization assay, pseudovirus [6] was 45.5 µg/mL. For the same substance, the neutralization IC50 [7] was 18.7 µg/mL, the IC80 neutralization [8] was 4.69 µg/mL and the neutralization IC50 [9] was 20.2 µg/mL. The neutralization IC50 [10] was 12.6 µg/mL, the neutralization IC50 [11] was 1.91 µg/mL and the neutralization IC50 [12] was 0.008 µg/mL. The neutralization IC50 [13] was 13.5 µg/mL, the IC80 neutralization [14] was greater than 50 µg/mL and the IC50 (µg/ml), TZM-bl cell neutralization assay, pseudovirus [15] was greater than 50 µg/mL. The neutralization IC50 [16] was 30.9 µg/mL, the neutralization IC50 [17] was 13.2 µg/mL and the neutralization IC50 [18] was 0.296 µg/mL. It also gave an IC80 neutralization [19] greater than 50 µg/mL, a neutralization IC50 [20] of 5.36 µg/mL and a neutralization IC50 [21] of 23.5 µg/mL. For the same substance, the neutralization IC50 [22] was greater than 50 µg/mL, the IC80 neutralization [23] was 0.564 µg/mL and the IC80 neutralization [24] was 19.5 µg/mL. It also gave a neutralization IC50 [25] of 20.1 µg/mL, an IC80 neutralization [26] of 23.9 µg/mL and a neutralization IC50 [27] of 12.7 µg/mL. For the same substance, the neutralization IC50 [28] was 13.3 µg/mL, the IC50 (µg/ml), TZM-bl cell neutralization assay, pseudovirus [29] was greater than 50 µg/mL and the IC80 neutralization [30] was greater than 50 µg/mL. The IC80 neutralization [31] was 3.1 µg/mL, the neutralization IC50 [32] was 0.89 µg/mL and the IC80 neutralization [33] was greater than 50 µg/mL. It also gave a neutralization IC50 [34] of 16.7 µg/mL, a neutralization IC50 [35] greater than 50 µg/mL and an IC80 neutralization [36] of 0.485 µg/mL. The neutralization IC50 [37] was 3.12 µg/mL, the neutralization IC50 [38] was 2.42 µg/mL and the neutralization IC50 [39] was 0.948 µg/mL. The neutralization IC50 [40] was 3.72 µg/mL, the IC80 (µg/ml), TZM-bl pseudovirus neutralization [41] was 5.55 µg/mL and the IC80 neutralization [42] was greater than 50 µg/mL. For the same substance, the IC80 neutralization [43] was 8.27 µg/mL, the IC80 neutralization [44] was greater than 50 µg/mL and the IC80 neutralization [45] was greater than 50 µg/mL. For the same substance, the IC80 neutralization [46] was 42.6 µg/mL.

With 4E10 (antibody) the IC80 neutralization [1] was greater than 50 µg/mL, the neutralization IC50 [2] was 0.165 µg/mL and the neutralization IC50 [3] was 0.227 µg/mL. For the same substance, the neutralization IC50 [4] was 0.886 µg/mL, the neutralization IC50 [5] was 0.11 µg/mL and the IC50 (µg/ml), TZM-bl cell neutralization assay, pseudovirus [6] was 2.88 µg/mL. It also gave a neutralization IC50 [7] of 1.2 µg/mL, an IC80 neutralization [8] of 3.29 µg/mL and a neutralization IC50 [9] of 1.61 µg/mL. It also gave a neutralization IC50 [10] of 0.663 µg/mL, a neutralization IC50 [11] of 0.226 µg/mL and a neutralization IC50 [12] of 0.001 µg/mL. It also gave a neutralization IC50 [13] of 0.606 µg/mL, an IC80 neutralization [14] of 3.04 µg/mL and an IC50 (µg/ml), TZM-bl cell neutralization assay, pseudovirus [15] greater than 50 µg/mL. It also gave a neutralization IC50 [16] of 1.23 µg/mL, a neutralization IC50 [17] of 1.2 µg/mL and a neutralization IC50 [18] of 0.133 µg/mL. The IC80 neutralization [19] was 2 µg/mL, the neutralization IC50 [20] was 0.836 µg/mL and the neutralization IC50 [21] was 1.48 µg/mL. For the same substance, the neutralization IC50 [22] was 2.35 µg/mL, the IC80 neutralization [23] was 0.135 µg/mL and the IC80 neutralization [24] was 1.77 µg/mL. It also gave a neutralization IC50 [25] of 0.417 µg/mL, an IC80 neutralization [26] of 1.52 µg/mL and a neutralization IC50 [27] of 1.44 µg/mL. The neutralization IC50 [28] was 2.06 µg/mL, the IC50 (µg/ml), TZM-bl cell neutralization assay, pseudovirus [29] was 13.8 µg/mL and the IC80 neutralization [30] was 6.57 µg/mL. The IC80 neutralization [31] was 0.557 µg/mL, the neutralization IC50 [32] was 0.721 µg/mL and the IC80 neutralization [33] was 6.11 µg/mL. It also gave a neutralization IC50 [34] of 1.15 µg/mL, a neutralization IC50 [35] of 14.4 µg/mL and an IC80 neutralization [36] of 0.089 µg/mL. For the same substance, the neutralization IC50 [37] was 0.31 µg/mL, the neutralization IC50 [38] was 0.383 µg/mL and the neutralization IC50 [39] was 8.81 µg/mL. For the same substance, the neutralization IC50 [40] was 0.688 µg/mL, the IC80 (µg/ml), TZM-bl pseudovirus neutralization [41] was 0.406 µg/mL and the IC80 neutralization [42] was 4.71 µg/mL. It also gave an IC80 neutralization [43] of 1.38 µg/mL, an IC80 neutralization [44] of 6.08 µg/mL and an IC80 neutralization [45] of 6.31 µg/mL. For the same substance, the IC80 neutralization [46] was 6.57 µg/mL.
